B1: human CENP-C fragment hCENP-C^760-943 (C-terminus of hCENP-C, wild type) (domain or fragment, UniProt Q03188-1 760-943, looked up)
chain: GRPSGGFVISGVLSPDTISSKRKAKENIGKVNKKSNKKRICLDNDERKTNLMVNLGIPLGDPLQPTRVKDPETREIILMDLVRPQDTYQFFVKHGELKVYKTLDTPFFSTGKLILGPQEEKGKQHVGQDILVFYVNFGDLLCTLHETPYILSTGDSFYVPSGNYYNIKNLRNEESVLLFTQIKR

Columns and labels:
[1] = biological target: chicken CENP-C^677-864 (C-terminus of chicken CENP-C including the Cupin domain) (chicken); test: crystal structure
native gel or EMSA = biological target: the molecule itself; test: native gel or EMSA

| Molecule | stoichiometry N [1] | binding result (native gel or EMSA) |
| --- | --- | --- |
| chicken CENP-C^677-864 (C-terminus of chicken CENP-C including the Cupin domain) (domain or fragment) | 2 | – |
| B1 | – | binds |
